Values of other authors in PMC4303049.

Tests used:
[1] = target: PACS-1 FBR (Homo sapiens) (UniProt Q6VY07)
[2] = target: PACS-2 FBR (Homo sapiens) (UniProt Q86VP3)
Sequence of PACS-2 FBR (Homo sapiens) (Q86VP3 37-186): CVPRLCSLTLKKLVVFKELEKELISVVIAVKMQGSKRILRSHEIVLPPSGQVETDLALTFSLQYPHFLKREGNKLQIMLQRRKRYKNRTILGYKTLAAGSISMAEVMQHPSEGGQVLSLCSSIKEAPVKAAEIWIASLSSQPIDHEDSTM

Sequence of PACS-1 FBR (Homo sapiens) (Q6VY07 117-266): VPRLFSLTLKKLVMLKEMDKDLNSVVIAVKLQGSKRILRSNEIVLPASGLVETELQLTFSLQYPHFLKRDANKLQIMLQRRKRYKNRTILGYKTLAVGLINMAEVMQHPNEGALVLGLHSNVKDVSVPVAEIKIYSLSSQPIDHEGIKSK

With “Polycystin-2 phosphorylated acidic cluster (from UniProt Q13563)” as the substance, how does the Kd [1] read?
The Kd was 14.8 µM.

What about the Kd [2] of the same substance?
The Kd was 15.4 µM.
